Legend:
MS2 coat protein [1] = assay: apparent KD of MS2 coat protein, switch OFF state (with FMN for OFF switches, without FMN for ON switches); designed switch direction (-1 OFF switch, 1 ON switch): -1; higher = weaker reporter binding; settings: FMN input: 0 or 200 uM; Eterna round: R93 (includes R88 designs)
Summary of the method: (§1)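 Normalised binding curves from single clusters were fitted, and the median fit for each design is given as apparent KD. The clusters held designed RNA switches transcribed on-chip from Illumina sequencing clusters. These were titrated with SNAP-549-labelled MS2 coat protein (twofold steps from 0.7 or 1.5 nM to 3 µM, 0.8–1.5 h to 10–20 min per step) in 100 mM Tris-HCl pH 7.5, 80 mM KCl, 4 mM MgCl2, without or with constant ligand.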

MS2 coat protein [2] = assay: apparent KD of MS2 coat protein, switch ON state; designed switch direction (-1 OFF switch, 1 ON switch): -1; higher = weaker reporter binding; settings: FMN input: 0 or 200 uM; Eterna round: R93 (includes R88 designs)
Summary of the method: as §1

MS2 coat protein [3] = assay: apparent KD of MS2 coat protein; designed switch direction (-1 OFF switch, 1 ON switch): 1; higher = weaker reporter binding
Summary of the method: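 On Illumina chips, designed RNA switches with common flanks were made by stalled E. coli RNA polymerase. Titrations with SNAP-549-labelled MS2 coat protein, doubling from 0.7 or 1.5 nM to 3 µM, were done with no input, with 200 uM small-molecule ligand, or with an oligonucleotide input. Apparent KD is the median per design over clusters, from curve fits of normalised cluster fluorescence.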

[4] = input ligand: microRNA oligo, concentration not stated
[5] = Eterna round: R95, input ligand: FMN 200 uM
[6] = Eterna round: R95, input ligand: microRNA oligo, concentration not stated
[7] = Eterna round: R95, input ligand: none

Sequence	apparent KD of MS2 coat protein (MS2 coat protein [1])	apparent KD of MS2 coat protein (MS2 coat protein [2])	apparent KD of MS2 coat protein (MS2 coat protein [3]; input ligand: FMN 200 uM)	apparent KD of MS2 coat protein (MS2 coat protein [3]; [4])	apparent KD of MS2 coat protein (MS2 coat protein [3]; input ligand: none)	further results
AAAAAACAUGAGGAUCACCCAUGUAAGGAUAUACCUAAAAAAAAAAAAAAAAAAAAUGGUAGAAGGUACAAAAA [excalibur12]	0.0675 µM	0.0281 µM	–	–	–	–
AAAAAACAUGAGGAUCACCCAUGUAAGGAUAUGCGAAAAUAAAAUAAAAUAAAAUAAAGCAGAAGGUACAAAAG [Mat - Exclusion 1 - Eli mod - D3]	0.0495 µM	0.0288 µM	–	–	–	–
AAAAAACAUGAGGAUCACCCAUGUAAGGAUAUGCUAGGAAAAAGAAAAAUAAAAACUAGCAGAAGGUACAUGAA [JL wbt mod 11]	0.113 µM	0.0332 µM	–	–	–	–
AAAAAACAUGAGGAUCACCCAUGUAAGGAUAUGCUAGGAAAAAGAAAAAUAAAAACUAGCAGAAGGUACAUUAA [JL wbt mod 9]	0.0383 µM	0.0266 µM	–	–	–	–
AAAAAACAUGAGGAUCACCCAUGUCAGGAUAUACAAAAGAAAAGAAAAAGAAAAGAAAGUAGAAGGGACAAAAA [mod1]	0.0246 µM	0.023 µM	–	–	–	–
AAAAAACAUGAGGAUCACCCAUGUCAGGAUAUCGUCAUAGAUGCAAAAGCAUCUAUGACGAGAAGGGACAUGCC [JL EX1 03]	0.0646 µM	0.103 µM	–	–	–	–
AAAAAACAUGAGGAUCACCCAUGUCAGGAUAUGCUAUGGAAAAUAAAAAUAAAACAUAGCAGAAGGGACACCAA [64%, Meechl, 2]	0.0581 µM	0.0328 µM	–	–	–	–
AAAAAACAUGAGGAUCACCCAUGUCAGGAUAUUUCUAAAAAAAAAAAAAAAAAAAAUGAAAGAAGGGACAAAAA [excalibur 6]	0.0525 µM	0.058 µM	–	–	–	–
AAAAAACAUGAGGAUCACCCAUGUGAGGAUAUCAGUAGUCAGUCCUCGGAGUGAGUACUGAGAAGGCACAUAAA [Brourd 613 Mod 2- Jieux - Exclusion 1]	0.113 µM	0.0659 µM	–	–	–	–
AAAAAACAUGAGGAUCACCCAUGUGAGGAUAUCGGUAGUGAGGGUAUAGUGUCAAUAGUGAGAAGGCGCAUAAA [Brourd 613 Mod 13 - Jieux - Exclusion 1]	0.028 µM	0.0263 µM	–	–	–	–
AAAAAACAUGAGGAUCACCCAUGUGAGGAUAUGAAAUUACUAAGACAACUGUAAUCAAUCAGAAGGCACAACAA [JR_Exc--1_Sub1207]	0.0386 µM	0.0236 µM	–	–	–	–
AAAAAACAUGAGGAUCACCCAUGUGAGGAUAUGCAAAACCCAAAUAAAAAGAGAAAAAGCAGAAGGCACAACAA [wbt round 1 mod 3]	0.0138 µM	0.0157 µM	–	–	–	–
UUACUCAUGUAAGGAUAUGCAGCCGUUUCGGCUGCAGAAGGUACUAUAAUACAUGAGGAUCACCCAUGUCUAUAAAAUAAAGAC [Mat - Same State NG 1 - JL mod - D81] (Eterna round: R96, puzzle: Same State NG 1)	–	–	0.0695 µM	0.024 µM	0.0325 µM	–
UUCCCAGCGGGAGGAUAUGGUGCCUUAUUGGUGCUAGAAGGUCCAACAUGAGGAUCACCCAUGUGGGAGUGGUCUAAUGACCUC [SS NG10LRO07] (Eterna round: R96, puzzle: Same State NG 1)	–	–	–	0.169 µM	–	–
UUCUCACAUGAGGAUCACCCAUGUGAGCCUCUGUGAGGAUAUCCGACAUAAUUAAUUGAAGGAGAAGGUACACGAG [Leer] (puzzle: Same State 1)	–	–	–	–	–	apparent KD of MS2 coat protein (MS2 coat protein [3]; [5]): 0.13 µM; apparent KD of MS2 coat protein (MS2 coat protein [3]; [6]): 0.00478 µM; apparent KD of MS2 coat protein (MS2 coat protein [3]; [7]): 0.0249 µM
UUGAAGAAUUAAGGAUAUUGAGUACAUAUGUUUAACAUGAGGAUCACCCAUGUGGGUUGCGGUAUCGAGAAGGUAAAUUACAAG [JL SSNG2 1.44] (Eterna round: R96, puzzle: Same State NG 2)	–	–	0.105 µM	0.0918 µM	0.138 µM	–
UUGAGGAAUUAAGGAUAUUGAGUACAUAUGUUUAACAUGAGGAUCACCCAUGUGGGUUGCGGUAUCGAGAAGGUAAAUUACUAC [salish99_SSNG2_r04_801] (Eterna round: R96, puzzle: Same State NG 2)	–	–	0.113 µM	0.0732 µM	0.12 µM	–
UUGCUCGUGUGAGGAUAUGCCGCCGUUUCGGCUGCAGAAGGUACUCUAAUACAUGAGGAUCACCCAUGUCUCUGUUGUUUCGUG [salish99_SSNG1_r04_935] (Eterna round: R96, puzzle: Same State NG 1)	–	–	0.0867 µM	0.0524 µM	0.0809 µM	–
UUGCUCGUGUGAGGAUAUGCCGCCGUUUCGGCUGCAGAAGGUACUUUAAUACAUGAGGAUCACCCAUGUCUCUGUUGUUUCGUG [salish99_SSNG1_r04_933] (Eterna round: R96, puzzle: Same State NG 1)	–	–	–	0.0231 µM	–	–
UUGGUUCUCGUAGGAUAUGUAGGAUAUUCCUACAUGAGGAUCACCCAUGUUCGCAUGGAAGAAGGACAGAAGGACGAUCACCAU [pwkr ssNG2 2FMN + 1F5.18] (Eterna round: R96, puzzle: Same State NG 2)	–	–	0.0548 µM	0.00188 µM	0.014 µM	–
UUUAGCGUUACAGGAUAUGGUGAGGAUUACCCACUAGAAGGGUAAACAUGUGCGUCGGACAUGAGGAUCACCCAUGUAGGGCGU (Eterna round: R96, puzzle: Same State NG 1)	–	–	0.0284 µM	0.0216 µM	0.0324 µM	–
UUUAGUUGCGGGCAGGAUAUGUGUUAAAAUACAUGAGGAUCACCCAUGUGCGGGUAUAACACCCGACAGAAGGGCCAAUCGCGAC [Laonerce - 2] (Eterna round: R96, puzzle: Same State 2)	–	–	0.0135 µM	0.0442 µM	0.0549 µM	–
UUUAGUUGCGGGCAGGAUAUGUGUUAAAAUACAUGAGGAUCACCCAUGUGCGGGUAUAACACCCGACAGAAGGGCCAAUCGCGAC [Laonerce - 2] (puzzle: Same State 2)	–	–	–	–	–	apparent KD of MS2 coat protein (MS2 coat protein [3]; [5]): 0.0218 µM; apparent KD of MS2 coat protein (MS2 coat protein [3]; [6]): 0.0564 µM; apparent KD of MS2 coat protein (MS2 coat protein [3]; [7]): 0.0679 µM
UUUCCAUAGAUAGGAUAUCAGUUUACAUGAGGAUCACCCAUGUUCUCUUUGGUUUUAAUUUUUUCUGAGAAGGAUCUUGAUGAA [JR_SSNG2_Sub001] (Eterna round: R96, puzzle: Same State NG 2)	–	–	0.0206 µM	0.0177 µM	0.0251 µM	–
UUUGGGUGGCUGGAGGAUAUUCUUGUGGUUACAUGAGGAUCACCCAUGUGCCGCGCGGUGCGCGAGGAGAAGGCUGGCGGCCGUU (puzzle: Same State 2)	–	–	–	–	–	apparent KD of MS2 coat protein (MS2 coat protein [3]; [5]): 0.0217 µM; apparent KD of MS2 coat protein (MS2 coat protein [3]; [6]): 0.0483 µM; apparent KD of MS2 coat protein (MS2 coat protein [3]; [7]): 0.0657 µM
UUUUUGAUCCGAGGAUAUCCUUUUUUCUUACAUGAGGAUCACCCAUGUAAAGGGAUUGAGUUGUAGGAGAAGGCGGUUUUUGUU [JR_SSNG2_Sub059] (Eterna round: R96, puzzle: Same State NG 2)	–	–	0.0198 µM	0.0283 µM	0.035 µM	–
UUUUUUUUUUCGAGACAAGCUUUUUGAUCACAUGAGGAUCACCCAUGUCUCGUCUUAUUUUUUUUUUUUUUUUUUUU [BA Sensor hsa-mir-208a - 2 - 1] (puzzle: Sensor for hsa-mir-208a)	–	–	–	–	–	apparent KD of MS2 coat protein (MS2 coat protein [3]; [5]): 0.343 µM; apparent KD of MS2 coat protein (MS2 coat protein [3]; [6]): 0.0336 µM; apparent KD of MS2 coat protein (MS2 coat protein [3]; [7]): 0.0213 µM

— the supplement of paper PMC9170038
